The target in one series is T1, zmARG (Zymomonas mobilis, UniProt Q5NQE9).
T1 construct: gene ZMO0432; full length Met1-Lys290; E. coli BL21(DE3) Star, pSKB3, N-terminal His6 with TEV site (25 extra residues); GH left after cleavage; EDTA-dialysed; dimer 64 kDa
The series is described as follows: arginase activity assay kit, urea colorimetric at […] nm. It counts as biochemical. The note with it: read-out: % inhibition at 5 mM.

Series [1] deals with the molecule itself. The series is described as follows: AF4-MALS; asymmetrical flow field-flow fractionation with multi-angle light scattering; Eclipse DUALTEC AF4, DAWN Heleos II 18-angle MALS; Zimm model.
Substrate in the series “purified protein”: N=C(N)NCCC[C@H](N)C(=O)O
The series is described as follows: purified protein. It counts as biochemical, Zymomonas mobilis. The note with it: Mn-dependent enzyme; metal, pH and temperature of the kinetic run not given.

As for `N[C@@H](CCCCB(O)O)C(=O)O` [ABH, 2(S)-amino-6-boronohexanoic acid], at zmARG, the inhibition at 5000 µM was roughly 95%.

B1: arginase from Zymomonas mobilis ZM4 (zmARG) (enzyme, Zymomonas mobilis subsp. mobilis ZM4)
chain: GHMSSINKPLRLIFPQWQGGDNPPYYLGSQLLAWLSPDPKGAVEEVPVPKPTGEPLQEENGIVGRSILIDQLSEARQLIEKHTPDSLVVLGGDCLVSLAPFSWLLEKYKDKLGILWIDSHPDVQTPKEYKNAHAHVLGELMGNGDSDFTRTVKHPVSPQKIMIAGIHDPLPYEANFISEHKIQTCSPEQVRSGAQPVLDWIKNEKIEYLAIHIDLDVLDPHNFRSVLFAKPGRGQHDFGDVAEGKLNIPDVVKLANQAASISKAVGLTIAEHLPWDALNLKNMLEELPLIGK
notes: two additional amino acids left at the N-terminus after TEV cleavage of the vector-encoded His6 tag; arginase zmARG, product of the ZMO0432 gene of Zymomonas mobilis subsp. mobilis ZM4, Met1-Lys290, amplified from genomic DNA; Two zinc ions are modelled in the active site of each subunit in the crystal; A Se-Met substituted form (made in B834 (DE3)) was used for phasing only; also called ZMO0432 …
For B1, the “stoichiometry N” value in series [1] was determined as 2.

B2: zmARG (Zymomonas mobilis subsp. mobilis ZM4 = ATCC 31821) (protein)
chain: MSSINKPLRLIFPQWQGGDNPPYYLGSQLLAWLSPDPKGAVEEVPVPKPTGEPLQEENGIVGRSILIDQLSEARQLIEKHTPDSLVVLGGDCLVSLAPFSWLLEKYKDKLGILWIDSHPDVQTPKEYKNAHAHVLGELMGNGDSDFTRTVKHPVSPQKIMIAGIHDPLPYEANFISEHKIQTCSPEQVRSGAQPVLDWIKNEKIEYLAIHIDLDVLDPHNFRSVLFAKPGRGQHDFGDVAEGKLNIPDVVKLANQAASISKAVGLTIAEHLPWDALNLKNMLEELPLIGK
notes: full length Met1-Lys290; E. coli BL21(DE3) Star, pSKB3, N-terminal His6 with TEV site (25 extra residues); GH left after cleavage; EDTA-dialysed; dimer 64 kDa
For B2, in the series “purified protein”, the Km is 6.8 mM and the kcat is given as 302 s^–1.

By inhibition is commonly meant the share of the control response that was lost under treatment. A word on the stoichiometry N: it is the number of molecules, sites or subunits per partner or assembly. By Km is commonly meant the substrate concentration at which the rate is half of its maximum.

For the origin of these results see publication PMC6988801, “Characterization of a Dimeric Arginase From Zymomonas mobilis ZM4” (Frontiers in Microbiology, 2019).
